Key:
GST-fused M1 C-tail = experiment: GST-pull down, M1 C-tail; format: binding; details: percent of full-length GASP-1 interaction; three independent experiments
Procedure, shortened: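 Phosphorimager quantification of [35S]-labelled GASP retained on GST-fused receptor C-tails after SDS-PAGE. Binding: glutathione-bead-bound fusions plus in vitro translated GASP, 1 h at 4°C, pH 7.4 Tris/NaCl/EDTA/DTT buffer with 1% Triton X-100. Means of at least three independent experiments.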

GST-fused ADRB2 C-tail = experiment: GST-pull down, ADRB2 C-tail; format: binding; details: central domain compared to full-length GASP-1
Procedure: (§1) cDNAs encoding the cytoplasmic C-tail of 14 GPCRs and 2 one-transmembrane receptors were cloned into the pGEX-2T prokaryotic expression vector downstream the GST sequence. […]
(§2) GST-fusion proteins were immobilized on glutathione-coupled Sepharose beads (GE Healthcare) for 1 h at 4°C and incubated with [^35S]-labelled in vitro translated GASP proteins or their truncated or mutated forms in ice-cold binding buffer containing: 20 mM Tris-HCl pH 7.4, 150 mM NaCl, 1 mM EDTA, 1 mM DTT, 10% glycerol and 1% Triton X-100. […] The supernatants were then analyzed by SDS-PAGE, the gels were stained with Coomassie blue to visualize GST-fusion proteins, dried and analyzed using a Phosphor-imager (Personal Molecular Imager FX, Biorad) to visualize [^35S]-labelled GASPs. Quantification was performed with the Quantity One software (Biorad). GST-pull down quantification data were analyzed using GraphPad Prism 4.03 (GraphPad Software). Quantifications presented are means of at least three independent experiments.

GST-fused CNR2 C-tail = experiment: GST-pull down, CNR2 C-tail; format: binding; details: central domain compared to full-length GASP-1
Procedure: as §1, §2

[1] = test system: GFP-tagged ADRB1 in HEK293 cells; experiment: Co-immunoprecipitation, ADRB1; format: cell-based; details: 48 h expression, anti-GFP immunoprecipitation
Procedure: HEK293 cells stably expressing N-terminal GFP-tagged ADRB1, ADRB2, CALCR and M1 or MyrPalm-mYFP were transfected with pcDNA3.1 containing the sequence for a central domain of GASP-1 (AA 380 to 1073) using JetPEI reagent (polyplus transfection) according to the instructions from the manufacturer. After 48 h of expression, cells were washed twice with PBS and lysed in a buffer containing 10 mM Tris-HCl, pH 7.4, 150 mM NaCl, 25 mM KCl, 0.3% Triton X-100 and cOmplete protease inhibitors (Roche) for 1 h at 4°C under agitation. 500 µg of cleared lysates were incubated with 1 µg of a mouse monoclonal anti-GFP antibody (Invitrogen) overnight at 4°C, followed by an incubation with 40 µl of protein A-Sepharose beads for an additional 2 h at 4°C. Beads were then washed five times in lysis buffer and precipitates were resolved on an 8% gel by SDS–PAGE and electrotransferred to immobilon-P membranes (Millipore) in 50 mM Tris-boric acid for 1 h at 300 mA. Membranes were blocked with 5% non-fat powder milk in TBS-Tween (50 mM Tris-HCl pH 8, 150 mM NaCl, 0.4% Tween-20) for 1 h at room temperature. […] For immunodetection of GASP or GFP-tagged receptors directly from cell lysates, 10 µg of proteins were loaded on SDS gels and analyzed following the procedure described above. Finally, membranes were washed in TBS-Tween and detected by chemiluminescence (ECL prime, GE Healthcare). […]

B1: central domain of GASP-1: central portion of GASP-1 (AA 380 to 1073) that contains 19 GASP motif (protein)
chain: MTKEEAKTKARARAKQEARSEEEALIGTWFWATDESSMADEASIESSLQVEDESIIGSWFWTEEEASMGTGASSKSRPRTDGERIGDSLFGAREKTSMKTGAEATSESILAADDEQVIIGSWFWAGEEVNQEAEEETIFGSWFWVIDAASVESGVGVSCESRTRSEEEEVIGPWFWSGEQVDIEAGIGEEARPGAEEETIFGSWFWAENQTYMDCRAETSCDTMQGAEEEEPIIGSWFWTRVEACVEGDVNSKSSLEDKEEAMIPCFGAKEEVSMKHGTGVRCRFMAGAEETNNKSCFWAEKEPCMYPAGGGSWKSRPEEEEDIVNSWFWSRKYTKPEAIIGSWLWATEESNIDGTGEKAKLLTEEETIINSWFWKEDEAISEATDREESRPEAEEGDIIGSWFWAGEEDRLEPAAETREEDRLAAEKEGIVGSWFGAREETIRREAGSCSKSSPKAEEEEVIIGSWFWEEEASPEAVAGVGFESKPGTEEEEITVGSWFWPEEEASIQAGSQAVEEMESETEEETIFGSWFWDGKEVSEEAGPCCVSKPEDDEEMIVESWFWSRDKAIKETGTVATCESKPENEEGAIVGSWFEAEDEVDNRTDNGSNCGSRTLADEDEAIVGSWFWAGDEAHFESNPSPVFRAICRSTCSVEQEPDPSRRPQSWEEVTVQFKPGPWGRVGFPSISPFRFPKE
modifications: left off: GST, N-terminal, kept
notes: central portion of GASP-1 (AA 380 to 1073) that contains 19 GASP motif
For B1, the “interaction with M1 C-tail relative to full-length GASP-1” value (GST-fused M1 C-tail) was “around 70%”, the “interaction with ADRB2 C-tail” value (GST-fused ADRB2 C-tail) was “mandatory and sufficient for this interaction” and the “interaction with CNR2 C-tail” value (GST-fused CNR2 C-tail) was “mandatory and sufficient for this interaction”. The “co-immunoprecipitation with ADRB1” value [1] was “co-immunoprecipitated”.

From PMC3575409, “Identification of a Novel Protein-Protein Interaction Motif Mediating Interaction of GPCR-Associated Sorting Proteins with G Protein-Coupled Receptors” (PLoS ONE, 2013)
